T1: MBP-AtYchF1 (Arabidopsis thaliana, UniProt Q9SA73)
T1 construct: gene YchF1; AtYchF1 cDNA in pMAL-C2, N-terminal MBP tag kept, E. coli BL21 (DE3)
T1 sequence (Q9SA73 1-394): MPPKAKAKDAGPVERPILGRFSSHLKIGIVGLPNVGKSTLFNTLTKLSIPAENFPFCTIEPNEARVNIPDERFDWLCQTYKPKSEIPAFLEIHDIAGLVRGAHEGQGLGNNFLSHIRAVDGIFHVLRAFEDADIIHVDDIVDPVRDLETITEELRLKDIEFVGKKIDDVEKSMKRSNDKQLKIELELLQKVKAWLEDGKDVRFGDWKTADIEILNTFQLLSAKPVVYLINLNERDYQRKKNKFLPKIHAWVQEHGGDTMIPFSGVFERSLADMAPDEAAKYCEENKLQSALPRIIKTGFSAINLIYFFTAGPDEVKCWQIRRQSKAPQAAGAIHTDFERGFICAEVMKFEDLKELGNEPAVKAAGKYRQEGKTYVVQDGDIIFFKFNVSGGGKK


How the values were obtained:
[1] = biological target: T1, MBP-AtYchF1; experiment: competition with Mant-GTP or Mant-ATP, fluorescence […]-500 nm; format: binding; details: 31 μM Mant-GTP or Mant-ATP; about 100 μM MBP-AtYchF1; competitive
[2] = substrate: Nc1nc2c(ncn2[C@@H]2O[C@H](COP(=O)(O)OP(=O)(O)O)[C@@H](OP(=O)(O)OP(=O)(O)O)[C@H]2O)c(=O)[nH]1; experiment: purified protein; format: biochemical, Arabidopsis thaliana; details: 300 μM MBP-AtYchF1; room temperature; PPi release
[3] = substrate: Nc1nc2c(ncn2[C@@H]2O[C@H](COP(=O)(O)OP(=O)(O)OP(=O)(O)O)[C@@H](O)[C@H]2O)c(=O)[nH]1; experiment: purified protein; format: biochemical, Arabidopsis thaliana; details: 300 μM MBP-AtYchF1; Pi release
[4] = substrate: Nc1ncnc2c1ncn2[C@@H]1O[C@H](COP(=O)(O)OP(=O)(O)OP(=O)(O)O)[C@@H](O)[C@H]1O; experiment: purified protein; format: biochemical, Arabidopsis thaliana; details: 300 μM MBP-AtYchF1; Pi release

Molecule | competition with Mant-GTP or Mant-ATP, fluorescence 400-500 nm [1] | Km [2] [µM] | Vmax [2] [µmol/min] | Km [3] [µM] | Vmax [3] [µmol/min] | Km [4] [µM] | Vmax [4] [µmol/min]
Nc1nc2c(ncn2[C@@H]2O[C@H](COP(=O)(O)OP(=O)(O)O)[C@@H](OP(=O)(O)OP(=O)(O)O)[C@H]2O)c(=O)[nH]1 [ppGpp] | ppGpp competed well against Mant-GTP and Mant-ATP for the binding of MBP-AtYchF1 | – | – | – | – | – | –
MBP-AtYchF1 (Arabidopsis thaliana) (protein, AtYchF1 cDNA in pMAL-C2, N-terminal MBP tag kept, E. coli BL21 (DE3)) MPPKAKAKDAGPVERPILGRFSSHLKIGIVGLPNVGKSTLFNTLTKLSIPAENFPFCTIEPNEARVNIPDERFDWLCQTYKPKSEIPAFLEIHDIAGLVRGAHEGQGLGNNFLSHIRAVDGIFHVLRAFEDADIIHVDDIVDPVRDLETITEELRLKDIEFVGKKIDDVEKSMKRSNDKQLKIELELLQKVKAWLEDGKDVRFGDWKTADIEILNTFQLLSAKPVVYLINLNERDYQRKKNKFLPKIHAWVQEHGGDTMIPFSGVFERSLADMAPDEAAKYCEENKLQSALPRIIKTGFSAINLIYFFTAGPDEVKCWQIRRQSKAPQAAGAIHTDFERGFICAEVMKFEDLKELGNEPAVKAAGKYRQEGKTYVVQDGDIIFFKFNVSGGGKK | – | 2235 ± 294.3 | 0.0349 | 1203 ± 125.5 | 0.0924 | 1278 ± 183.8 | 0.0939

Reference: PMC9748339, “Co-crystalization reveals the interaction between AtYchF1 and ppGpp” (Frontiers in Molecular Biosciences, 2022)
